# Tested on: mutant form of α-Gal A expressed in HEK-293 cells
# Experiment: HEK assay (GLP HEK / Migalastat Amenability Assay): α-Gal A activity in lysates of transiently transfected HEK-293 cells incubated with or without 10 μM migalastat
# Type: cell-based, human
# Conditions: for Absolute increase (% WT) / Relative increase: 10 μM migalastat versus baseline; for Baseline α-Gal A activity (% WT): absence of migalastat; for Baseline α-Gal A activity (% WT) / 10 μM migalastat α-Gal A activity (% WT): percentage of baseline wild-type α-Gal A activity; for Baseline α-Gal A activity (% WT) / Baseline α-Gal A activity / 10 μM migalastat α-Gal A activity / 10 μM migalastat α-Gal A activity (% WT): mean ± SEM; for Baseline α-Gal A activity / 10 μM migalastat α-Gal A activity: lysates of HEK-293 cells transiently transfected with the mutant form; for Baseline α-Gal A activity: incubated 5 days in absence of migalastat; for 10 μM migalastat α-Gal A activity: incubated 5 days with 10 μM migalastat; for 10 μM migalastat α-Gal A activity (% WT): with 10 μM migalastat, 5 days
# How it was run: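 Activity reported as 4-MU released (nmol/mg/hr), mean±SEM, from lysates of transiently transfected HEK-293 cells expressing mutant α-Gal A, cultured with or without 10 μM migalastat.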
Molecule,Absolute increase (% WT),Relative increase,Baseline α-Gal A activity (% WT),Baseline α-Gal A activity [nmol/mg/h],10 μM migalastat α-Gal A activity [nmol/mg/h],10 μM migalastat α-Gal A activity (% WT)
L324W (protein) MQLRNPELHLGCALALRFLALVSWDIPGARALDNGLARTPTMGWLHWERFMCNLDCQEEPDSCISEKLFMEMAELMVSEGWKDAGYEYLCIDDCWMAPQRDSEGRLQADPQRFPHGIRQLANYVHSKGLKLGIYADVGNKTCAGFPGSFGYYDIDAQTFADWGVDLLKFDGCYCDSLENLADGYKHMSLALNRTGRSIVYSCEWPLYMWPFQKPNYTEIRQYCNHWRNFADIDDSWKSIKSILDWTSFNQERIVDVAGPGGWNDPDMLVIGNFGLSWNQQVTQMALWAIMAAPLFMSNDLRHISPQAKALLQDKDVIAINQDPWGKQGYQLRQGDNFEVWERPLSGLAWAVAMINRQEIGGPRSYTIAVASLGKGVACNPACFITQLLPVKRKLGFYEWTSRLRSHINPTGTVLLQLENTMQMSLKDLL,19.8,1.3,73.5 ± 1.8,20623 ± 721,25772 ± 1045,93.3 ± 4.5
G325C (protein) MQLRNPELHLGCALALRFLALVSWDIPGARALDNGLARTPTMGWLHWERFMCNLDCQEEPDSCISEKLFMEMAELMVSEGWKDAGYEYLCIDDCWMAPQRDSEGRLQADPQRFPHGIRQLANYVHSKGLKLGIYADVGNKTCAGFPGSFGYYDIDAQTFADWGVDLLKFDGCYCDSLENLADGYKHMSLALNRTGRSIVYSCEWPLYMWPFQKPNYTEIRQYCNHWRNFADIDDSWKSIKSILDWTSFNQERIVDVAGPGGWNDPDMLVIGNFGLSWNQQVTQMALWAIMAAPLFMSNDLRHISPQAKALLQDKDVIAINQDPLCKQGYQLRQGDNFEVWERPLSGLAWAVAMINRQEIGGPRSYTIAVASLGKGVACNPACFITQLLPVKRKLGFYEWTSRLRSHINPTGTVLLQLENTMQMSLKDLL,34.5,1.7,51.4 ± 1.7,14482 ± 695,23873 ± 1021,85.9 ± 4
K326R (protein) MQLRNPELHLGCALALRFLALVSWDIPGARALDNGLARTPTMGWLHWERFMCNLDCQEEPDSCISEKLFMEMAELMVSEGWKDAGYEYLCIDDCWMAPQRDSEGRLQADPQRFPHGIRQLANYVHSKGLKLGIYADVGNKTCAGFPGSFGYYDIDAQTFADWGVDLLKFDGCYCDSLENLADGYKHMSLALNRTGRSIVYSCEWPLYMWPFQKPNYTEIRQYCNHWRNFADIDDSWKSIKSILDWTSFNQERIVDVAGPGGWNDPDMLVIGNFGLSWNQQVTQMALWAIMAAPLFMSNDLRHISPQAKALLQDKDVIAINQDPLGRQGYQLRQGDNFEVWERPLSGLAWAVAMINRQEIGGPRSYTIAVASLGKGVACNPACFITQLLPVKRKLGFYEWTSRLRSHINPTGTVLLQLENTMQMSLKDLL,48.0,1.8,61.7 ± 3.4,17744 ± 923,31690 ± 1112,109.7 ± 2.9
K326E (protein) MQLRNPELHLGCALALRFLALVSWDIPGARALDNGLARTPTMGWLHWERFMCNLDCQEEPDSCISEKLFMEMAELMVSEGWKDAGYEYLCIDDCWMAPQRDSEGRLQADPQRFPHGIRQLANYVHSKGLKLGIYADVGNKTCAGFPGSFGYYDIDAQTFADWGVDLLKFDGCYCDSLENLADGYKHMSLALNRTGRSIVYSCEWPLYMWPFQKPNYTEIRQYCNHWRNFADIDDSWKSIKSILDWTSFNQERIVDVAGPGGWNDPDMLVIGNFGLSWNQQVTQMALWAIMAAPLFMSNDLRHISPQAKALLQDKDVIAINQDPLGEQGYQLRQGDNFEVWERPLSGLAWAVAMINRQEIGGPRSYTIAVASLGKGVACNPACFITQLLPVKRKLGFYEWTSRLRSHINPTGTVLLQLENTMQMSLKDLL,25.3,1.4,55.6 ± 2.6,15541 ± 832,22340 ± 828,80.9 ± 3.9
K326T (protein) MQLRNPELHLGCALALRFLALVSWDIPGARALDNGLARTPTMGWLHWERFMCNLDCQEEPDSCISEKLFMEMAELMVSEGWKDAGYEYLCIDDCWMAPQRDSEGRLQADPQRFPHGIRQLANYVHSKGLKLGIYADVGNKTCAGFPGSFGYYDIDAQTFADWGVDLLKFDGCYCDSLENLADGYKHMSLALNRTGRSIVYSCEWPLYMWPFQKPNYTEIRQYCNHWRNFADIDDSWKSIKSILDWTSFNQERIVDVAGPGGWNDPDMLVIGNFGLSWNQQVTQMALWAIMAAPLFMSNDLRHISPQAKALLQDKDVIAINQDPLGTQGYQLRQGDNFEVWERPLSGLAWAVAMINRQEIGGPRSYTIAVASLGKGVACNPACFITQLLPVKRKLGFYEWTSRLRSHINPTGTVLLQLENTMQMSLKDLL,26.4,1.4,69.6 ± 2.4,19442 ± 739,26653 ± 877,96 ± 3.7
G325A (protein) MQLRNPELHLGCALALRFLALVSWDIPGARALDNGLARTPTMGWLHWERFMCNLDCQEEPDSCISEKLFMEMAELMVSEGWKDAGYEYLCIDDCWMAPQRDSEGRLQADPQRFPHGIRQLANYVHSKGLKLGIYADVGNKTCAGFPGSFGYYDIDAQTFADWGVDLLKFDGCYCDSLENLADGYKHMSLALNRTGRSIVYSCEWPLYMWPFQKPNYTEIRQYCNHWRNFADIDDSWKSIKSILDWTSFNQERIVDVAGPGGWNDPDMLVIGNFGLSWNQQVTQMALWAIMAAPLFMSNDLRHISPQAKALLQDKDVIAINQDPLAKQGYQLRQGDNFEVWERPLSGLAWAVAMINRQEIGGPRSYTIAVASLGKGVACNPACFITQLLPVKRKLGFYEWTSRLRSHINPTGTVLLQLENTMQMSLKDLL,34.4,1.5,64.9 ± 3.8,18183 ± 1254,27523 ± 1456,99.2 ± 5.4
K326Q (protein) MQLRNPELHLGCALALRFLALVSWDIPGARALDNGLARTPTMGWLHWERFMCNLDCQEEPDSCISEKLFMEMAELMVSEGWKDAGYEYLCIDDCWMAPQRDSEGRLQADPQRFPHGIRQLANYVHSKGLKLGIYADVGNKTCAGFPGSFGYYDIDAQTFADWGVDLLKFDGCYCDSLENLADGYKHMSLALNRTGRSIVYSCEWPLYMWPFQKPNYTEIRQYCNHWRNFADIDDSWKSIKSILDWTSFNQERIVDVAGPGGWNDPDMLVIGNFGLSWNQQVTQMALWAIMAAPLFMSNDLRHISPQAKALLQDKDVIAINQDPLGQQGYQLRQGDNFEVWERPLSGLAWAVAMINRQEIGGPRSYTIAVASLGKGVACNPACFITQLLPVKRKLGFYEWTSRLRSHINPTGTVLLQLENTMQMSLKDLL,26.1,1.3,78 ± 3,22075 ± 1209,29168 ± 1869,104.1 ± 5.7
G325V (protein) MQLRNPELHLGCALALRFLALVSWDIPGARALDNGLARTPTMGWLHWERFMCNLDCQEEPDSCISEKLFMEMAELMVSEGWKDAGYEYLCIDDCWMAPQRDSEGRLQADPQRFPHGIRQLANYVHSKGLKLGIYADVGNKTCAGFPGSFGYYDIDAQTFADWGVDLLKFDGCYCDSLENLADGYKHMSLALNRTGRSIVYSCEWPLYMWPFQKPNYTEIRQYCNHWRNFADIDDSWKSIKSILDWTSFNQERIVDVAGPGGWNDPDMLVIGNFGLSWNQQVTQMALWAIMAAPLFMSNDLRHISPQAKALLQDKDVIAINQDPLVKQGYQLRQGDNFEVWERPLSGLAWAVAMINRQEIGGPRSYTIAVASLGKGVACNPACFITQLLPVKRKLGFYEWTSRLRSHINPTGTVLLQLENTMQMSLKDLL,17.1,9.3,2.2 ± 0.2,572 ± 30,5333 ± 294,19.3 ± 1.1
K326M (protein) MQLRNPELHLGCALALRFLALVSWDIPGARALDNGLARTPTMGWLHWERFMCNLDCQEEPDSCISEKLFMEMAELMVSEGWKDAGYEYLCIDDCWMAPQRDSEGRLQADPQRFPHGIRQLANYVHSKGLKLGIYADVGNKTCAGFPGSFGYYDIDAQTFADWGVDLLKFDGCYCDSLENLADGYKHMSLALNRTGRSIVYSCEWPLYMWPFQKPNYTEIRQYCNHWRNFADIDDSWKSIKSILDWTSFNQERIVDVAGPGGWNDPDMLVIGNFGLSWNQQVTQMALWAIMAAPLFMSNDLRHISPQAKALLQDKDVIAINQDPLGMQGYQLRQGDNFEVWERPLSGLAWAVAMINRQEIGGPRSYTIAVASLGKGVACNPACFITQLLPVKRKLGFYEWTSRLRSHINPTGTVLLQLENTMQMSLKDLL,63.2,3.7,24.4 ± 1.6,8482 ± 500,31204 ± 1979,87.6 ± 3.5

# — patent publication US11833164B2, “Methods of treating Fabry disease in patients having a mutation in the GLA gene” (Amicus Therapeutics, Inc., priority 2019, dated 2023)
